These results are taken from the supplement of paper PMC7125110.

Sequences and labels used below:
B1: glmS ribozyme (parent)
chain: AUAAAAGCGCCAGAACUACAGAAAUGUAGUUGACGAGGAGGAGGUUUAUCGAAUUUUCGGCGGAUGCCUCCAAA

± gives the standard error. Fewer inactive variants are shown than the library holds.

In one data set the parent is B1. The experiment in a line: self-cleavage kobs at 2500 uM GlcN6P; higher = faster cleavage; RNA array. The following applies: with glucosamine-6-phosphate. The procedure, abridged: (§1)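 Tiles of sequenced MiSeq chips were imaged over ~14 h at 37 °C. On them, barcoded ribozyme variants had been transcribed in situ by E. coli RNA polymerase and were tracked via a hybridised Cy3 probe while glucosamine-6-phosphate (40 μM to 10 mM) in HEPES/KCl/Mg(OAc)2 buffer flowed in. Per-tile medians, normalised to baseline and to non-cleaving reference variants, were fit to one- or two-exponential decays for kobs, and weighted Michaelis–Menten fits gave kcat and KM.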
As to A39C A53G C58A C61A, the “self-cleavage kobs at 2500 uM GlcN6P” value was < 1e-05 s⁻¹.

Take U31G G41A U54C: the “self-cleavage kobs at 2500 uM GlcN6P” value worked out at 6.89e-05 ± 2.6e-05 s⁻¹.

As for U2G U46G A53U, the “self-cleavage kobs at 2500 uM GlcN6P” value is 0.00369 ± 0.0011 s⁻¹.

For G40U C50A U56A C67G C71U, the “self-cleavage kobs at 2500 uM GlcN6P” value is < 1e-05 s⁻¹.

C58G G59C C61A G62A C71A: the “self-cleavage kobs at 2500 uM GlcN6P” value was < 1e-05 s⁻¹.

In the case of A15U G29U C61U, the “self-cleavage kobs at 2500 uM GlcN6P” value was < 1e-05 s⁻¹.

For C8U G9U G63U, the “self-cleavage kobs at 2500 uM GlcN6P” value is < 1e-05 s⁻¹.

For the variant A52U G60A G66U, the “self-cleavage kobs at 2500 uM GlcN6P” value was < 1e-05 s⁻¹.

G7A G29C G38A G44C: the “self-cleavage kobs at 2500 uM GlcN6P” value was < 1e-05 s⁻¹.

On to A6G A39G U54G, for which the “self-cleavage kobs at 2500 uM GlcN6P” value is 0.000164 ± 4.9e-05 s⁻¹.

In the case of U47G C50G, the “self-cleavage kobs at 2500 uM GlcN6P” value came out at 4.35e-05 ± 1.2e-05 s⁻¹.

On to A52C U69G, for which the “self-cleavage kobs at 2500 uM GlcN6P” value worked out at 9.19e-05 ± 4.2e-05 s⁻¹.

Turning to C50G C68G C70U, the “self-cleavage kobs at 2500 uM GlcN6P” value was 7.27e-05 ± 1.1e-05 s⁻¹.

With A6C G29C G51U A53G, the “self-cleavage kobs at 2500 uM GlcN6P” value is < 1e-05 s⁻¹.

Turning to C16G A36U A48G C58A, the “self-cleavage kobs at 2500 uM GlcN6P” value was < 1e-05 s⁻¹.

Turning to U31G G41U G62U G66U, the “self-cleavage kobs at 2500 uM GlcN6P” value is < 1e-05 s⁻¹.

In the case of G7U G9A G29A A39G, the “self-cleavage kobs at 2500 uM GlcN6P” value was < 1e-05 s⁻¹.

On to G37C U57C C58G, for which the “self-cleavage kobs at 2500 uM GlcN6P” value was < 1e-05 s⁻¹.

In the case of G7C C11U U54A, the “self-cleavage kobs at 2500 uM GlcN6P” value was < 1e-05 s⁻¹.

For G32C A33C G63U G66A, the “self-cleavage kobs at 2500 uM GlcN6P” value was < 1e-05 s⁻¹.

In the case of G35A A36U G44A A52G C61G C67A, the “self-cleavage kobs at 2500 uM GlcN6P” value is < 1e-05 s⁻¹.

Turning to G9U U45G G62C G66C, the “self-cleavage kobs at 2500 uM GlcN6P” value is < 1e-05 s⁻¹.

Take C11A U30G G43C C68G C71U: the “self-cleavage kobs at 2500 uM GlcN6P” value was 0.000269 ± 9.8e-05 s⁻¹.

On to A14G G29A A36U, for which the “self-cleavage kobs at 2500 uM GlcN6P” value is < 1e-05 s⁻¹.

Turning to C34U A36C A39U, the “self-cleavage kobs at 2500 uM GlcN6P” value is < 1e-05 s⁻¹.

For A6C A15U G43U U54G, the “self-cleavage kobs at 2500 uM GlcN6P” value was < 1e-05 s⁻¹.

Turning to C8G U30C A36C U69C, the “self-cleavage kobs at 2500 uM GlcN6P” value was < 1e-05 s⁻¹.

Turning to G29U A36U C70G, the “self-cleavage kobs at 2500 uM GlcN6P” value was 0.000444 ± 0.0001 s⁻¹.

On to G7C A14G G43A U46A U47C G60U, for which the “self-cleavage kobs at 2500 uM GlcN6P” value was < 1e-05 s⁻¹.

In the case of G29A G35C C71A, the “self-cleavage kobs at 2500 uM GlcN6P” value is < 1e-05 s⁻¹.

On to C8U A15U G44C, for which the “self-cleavage kobs at 2500 uM GlcN6P” value was < 1e-05 s⁻¹.

On to C16U C34A A36C C58A, for which the “self-cleavage kobs at 2500 uM GlcN6P” value was < 1e-05 s⁻¹.

As for G37A U56C, the “self-cleavage kobs at 2500 uM GlcN6P” value was determined as 0.000299 ± 7.3e-05 s⁻¹.

For the variant C10G G44U C50G, the “self-cleavage kobs at 2500 uM GlcN6P” value is < 1e-05 s⁻¹.

Turning to G32U A39C, the “self-cleavage kobs at 2500 uM GlcN6P” value was found to be 4.98e-05 ± 1.5e-05 s⁻¹.

In the case of C10A G44C A48C, the “self-cleavage kobs at 2500 uM GlcN6P” value is < 1e-05 s⁻¹.

For A36U A42G U49G U56C G66U C71U, the “self-cleavage kobs at 2500 uM GlcN6P” value was < 1e-05 s⁻¹.

With A6U G38C U47A A48G G66A U69G, the “self-cleavage kobs at 2500 uM GlcN6P” value was < 1e-05 s⁻¹.

Take U30G G35A G51A C70A: the “self-cleavage kobs at 2500 uM GlcN6P” value was < 1e-05 s⁻¹.

Regarding G9C A12C A42C, the “self-cleavage kobs at 2500 uM GlcN6P” value is < 1e-05 s⁻¹.

For the variant A39C U46A U47G A48C G63A, the “self-cleavage kobs at 2500 uM GlcN6P” value was < 1e-05 s⁻¹.

In the case of G29A A48U U69A, the “self-cleavage kobs at 2500 uM GlcN6P” value was < 1e-05 s⁻¹.

Regarding C8G C10G A39C, the “self-cleavage kobs at 2500 uM GlcN6P” value was < 1e-05 s⁻¹.

Take A39U G41U C50G: the “self-cleavage kobs at 2500 uM GlcN6P” value was < 1e-05 s⁻¹.

As for U54G C68U C70U, the “self-cleavage kobs at 2500 uM GlcN6P” value turned out to be 0.00037 ± 6.8e-05 s⁻¹.

Take A42U C50G G51C U69G C71G: the “self-cleavage kobs at 2500 uM GlcN6P” value was < 1e-05 s⁻¹.

For the variant A12C A36G G40U G43U U54G, the “self-cleavage kobs at 2500 uM GlcN6P” value was < 1e-05 s⁻¹.

In the case of A6C G7C G41A, the “self-cleavage kobs at 2500 uM GlcN6P” value was < 1e-05 s⁻¹.

For the variant G29U A42C C61A, the “self-cleavage kobs at 2500 uM GlcN6P” value is < 1e-05 s⁻¹.

With A15C G32U G38C G59U, the “self-cleavage kobs at 2500 uM GlcN6P” value was < 1e-05 s⁻¹.

Regarding A36C G43C G51C C61A C71U, the “self-cleavage kobs at 2500 uM GlcN6P” value was < 1e-05 s⁻¹.

For G7C A48U A64U C67U, the “self-cleavage kobs at 2500 uM GlcN6P” value was < 1e-05 s⁻¹.

As to G44U C67U C71A, the “self-cleavage kobs at 2500 uM GlcN6P” value was 3.95e-05 ± 1.3e-05 s⁻¹.

For C11A A12U G35U C50G, the “self-cleavage kobs at 2500 uM GlcN6P” value was 0.000171 ± 4.2e-05 s⁻¹.

Turning to U30A G32U C50A, the “self-cleavage kobs at 2500 uM GlcN6P” value was < 1e-05 s⁻¹.

On to C11U A15C G41U G60U, for which the “self-cleavage kobs at 2500 uM GlcN6P” value is < 1e-05 s⁻¹.

Regarding A12U G35A A39G U45C C61U, the “self-cleavage kobs at 2500 uM GlcN6P” value is < 1e-05 s⁻¹.

A14U U30C A53C: the “self-cleavage kobs at 2500 uM GlcN6P” value was < 1e-05 s⁻¹.

As for G29C A39C A48U U49C U57A G60A C61A C67A, the “self-cleavage kobs at 2500 uM GlcN6P” value is < 1e-05 s⁻¹.

On to C8U G60U C61G C70G, for which the “self-cleavage kobs at 2500 uM GlcN6P” value was < 1e-05 s⁻¹.

Turning to C8G A48U G62A, the “self-cleavage kobs at 2500 uM GlcN6P” value was < 1e-05 s⁻¹.

As to C8G G63U U65C, the “self-cleavage kobs at 2500 uM GlcN6P” value was < 1e-05 s⁻¹.

Regarding C8U C34U G63C, the “self-cleavage kobs at 2500 uM GlcN6P” value was < 1e-05 s⁻¹.

For C8A U55A C71U, the “self-cleavage kobs at 2500 uM GlcN6P” value was < 1e-05 s⁻¹.

Regarding G35A U46A A64G, the “self-cleavage kobs at 2500 uM GlcN6P” value is < 1e-05 s⁻¹.

Turning to C8U C10A A15C, the “self-cleavage kobs at 2500 uM GlcN6P” value is < 1e-05 s⁻¹.

For the variant G38A A42G C68G, the “self-cleavage kobs at 2500 uM GlcN6P” value was < 1e-05 s⁻¹.

Consider A14C U54A U55A, for which the “self-cleavage kobs at 2500 uM GlcN6P” value stood at 0.00221 ± 0.00054 s⁻¹.

In the case of A39G G44A, the “self-cleavage kobs at 2500 uM GlcN6P” value came to 0.00105 ± 0.00035 s⁻¹.

As to U54G U57C, the “self-cleavage kobs at 2500 uM GlcN6P” value is 0.000126 ± 2.3e-05 s⁻¹.

As to G7C G51U G66A C67U C68U, the “self-cleavage kobs at 2500 uM GlcN6P” value was < 1e-05 s⁻¹.

The variants in the next data set derive from B1. The experiment in a line: self-cleavage kobs at 10000 uM GlcN6P; higher = faster cleavage; RNA array. The note with it: with glucosamine-6-phosphate. The procedure, abridged:
as §1
On to G7A G29C G38A G44C, for which the “self-cleavage kobs at 10000 uM GlcN6P” value was < 1e-05 s⁻¹.

Regarding A52U G66U C67A, the “self-cleavage kobs at 10000 uM GlcN6P” value was found to be 8.48e-05 ± 2.8e-05 s⁻¹.

Turning to G21A A33U, the “self-cleavage kobs at 10000 uM GlcN6P” value was found to be 0.00012 ± 2.2e-05 s⁻¹.

Regarding A14C U65C C71U, the “self-cleavage kobs at 10000 uM GlcN6P” value is 4.99e-05 ± 2.1e-05 s⁻¹.

On to C11A U30G G43C C68G C71U, for which the “self-cleavage kobs at 10000 uM GlcN6P” value is 0.000118 ± 3e-05 s⁻¹.

Regarding U31G G38A A53C U65C, the “self-cleavage kobs at 10000 uM GlcN6P” value is < 1e-05 s⁻¹.

In the case of C8G U30C A36C U69C, the “self-cleavage kobs at 10000 uM GlcN6P” value was < 1e-05 s⁻¹.

For the variant A33G U47A C70U, the “self-cleavage kobs at 10000 uM GlcN6P” value is < 1e-05 s⁻¹.

Take G29A G35C C71A: the “self-cleavage kobs at 10000 uM GlcN6P” value is < 1e-05 s⁻¹.

On to G37A U56C, for which the “self-cleavage kobs at 10000 uM GlcN6P” value was found to be 0.000401 ± 5.4e-05 s⁻¹.

Consider G32U A39C, for which the “self-cleavage kobs at 10000 uM GlcN6P” value amounted to 7.09e-05 ± 1.1e-05 s⁻¹.

With A36U A42G U49G U56C G66U C71U, the “self-cleavage kobs at 10000 uM GlcN6P” value was < 1e-05 s⁻¹.

In the case of A6U G38C U47A A48G G66A U69G, the “self-cleavage kobs at 10000 uM GlcN6P” value was < 1e-05 s⁻¹.

G29U A42C C61A: the “self-cleavage kobs at 10000 uM GlcN6P” value was < 1e-05 s⁻¹.

As to G44U C67U C71A, the “self-cleavage kobs at 10000 uM GlcN6P” value stood at 4.71e-05 ± 1.2e-05 s⁻¹.

For the variant C16U A42U A52C, the “self-cleavage kobs at 10000 uM GlcN6P” value was < 1e-05 s⁻¹.

In the case of C8G G63U U65C, the “self-cleavage kobs at 10000 uM GlcN6P” value is < 1e-05 s⁻¹.

As to A39G G44A, the “self-cleavage kobs at 10000 uM GlcN6P” value is 0.000926 ± 0.00033 s⁻¹.
